# B1: Arabidopsis thaliana cryptochrome 2 (CRY2, UniProt Q96524), residues 1-535 fused after the Gal4 DNA-binding domain (Gal4BD-CRY2(535)); mutagenized window 321-412, Q96524 (parent)
# chain: MKMDKKTIVWFRRDLRIEDNPALAAAAHEGSVFPVFIWCPEEEGQFYPGRASRWWMKQSLAHLSQSLKALGSDLTLIKTHNTISAILDCIRVTGATKVVFNHLYDPVSLVRDHTVKEKLVERGISVQSYNGDLLYEPWEIYCEKGKPFTSFNSYWKKCLDMSIESVMLPPPWRLMPITAAAEAIWACSIEELGLENEAEKPSNALLTRAWSPGWSNADKLLNEFIEKQLIDYAKNSKKVVGNSTSLLSPYLHFGEISVRHVFQCARMKQIIWARDKNSEGEESADLFLRGIGLREYSRYICFNFPFTHEQSLLSHLRFFPWDADVDKFKAWRQGRTGYPLVDAGMRELWATGWMHNRIRVIVSSFAVKFLLLPWKWGMKYFWDTLLDADLECDILGWQYISGSIPDGHELDRLDNPALQGAKYDPEGEYIRQWLPELARLPTEWIHHPWDAPLTVLKASGVELGTNYAKPIVDIDTARELLAKAISRTREAQIMIGAAPDEIVADSFEALGANTIKEPGLCPSVSSNDQQVPSAV
# Variants of: B1
# Assay: yeast two-hybrid growth selection (MaV203; Gal4BD-CRY2(1-535) library x Gal4AD-CIB1; URA3 reporter on SC -Trp/-Leu/-Ura) in the dark, deep sequencing before and after selection, Enrich2 scoring; three independent screens (one at 48 h, two …)
# Details: with CIB1 (CRYPTOCHROME-INTERACTING BASIC-HELIX-LOOP-HELIX 1), dark (no blue light), screens 1, 3 and 4, Svar > 0 = enriched under dark selection for CRY2-CIB1 two-hybrid growth (URA3 reporter), < 0 = depleted, relative to wild type (whose scores are 0). 'The Enrich2 software calculates, parent: 0, not an affinity, scale: Enrich2 score, numbering: uniprot, sequence starts at 1
row,Variant,enrichment
1,G407S,-0.771
2,G407D,1.47
3,G407A,-0.714
4,G407C,1.11
5,G407R,-0.0452
6,G407N,2.77
7,G407V,1.39
8,L410R,1.71
9,E409G,0.152
10,E409K,-0.366
11,E409A,-0.172
12,E409V,0.507
13,E409T,0.84
14,E409D,0.454
15,S403N,0.435
16,S403R,2.21
17,D411E,1.55
18,H408Y,-0.432
19,H408P,1.5
20,H408L,1.61

row,Variant,enrichment
1,H408R,2.75
2,D406E,-0.152
3,D406N,-0.7
4,D406V,2.12
5,D406G,-0.172
6,D406A,-0.00151
7,D406H,-0.803
8,D406Y,-0.496
9,I404T,-0.507
10,I404V,-0.182
11,I404A,1.16
12,I404N,1.51
13,I404S,1.61
14,I404Y,1.4
15,I404F,2.25
16,P405T,0.224
17,P405H,1.08
18,P405L,2
19,P405R,1.02
20,P405A,0.742

# — paper PMC12212125, “Constitutively active Arabidopsis cryptochrome two alleles identified using yeast selection and deep mutational scanning” (The Journal of Biological Chemistry, 2025)
